What was measured:
[1] = target: diketide-ACP4(4) (DEBS ACP4 with its natural C-terminal linker, loaded with diketide) (UniProt Q03132)
[2] = target: diketide-ACP4(Ø) (DEBS ACP4 without linker, loaded with diketide) (UniProt Q03132)
DEBS-2 = DEBS-2 (UniProt Q03132)
[3] = target: diketide-ACP2(2) (DEBS ACP2 with its natural C-terminal linker, loaded with diketide) (UniProt Q03131)
[4] = target: diketide-ACP2(4) (DEBS ACP2 with the C-terminal linker of module 4, loaded with diketide) (UniProt Q03131)

## (3)M5+TE (module 5 of DEBS with the N-terminal linker of module 3, fused to thioesterase)
[1]
  kcat/KM, fold decrease against the matched reaction (FIG. 28 B): fell approximately 20-fold and 150-fold, respectively
  triketide lactone formation at 20 µM substrate (FIG. 28 B): transfer of diketide from the donor ACP to the acceptor module occurred at 20 µM substrate concentration
[2]
  kcat/KM (FIG. 29 B): 41.7 M⁻¹ s⁻¹

## (5)M6+TE (module 6 of DEBS with the N-terminal linker of module 5, with thioesterase)
[2]
  kcat/KM, fold decrease against diketide-ACP4(4) with the same module: the kcat/KM values drop approximately 70-300 fold

## ery M1-RAL rifM5+ERL
DEBS-2
  6-dEB production on co-transformation in S. coelicolor (with DEBS-3): Yes (dEB6)

## (5)M5+TE (module 5 of DEBS with its own N-terminal linker, fused to thioesterase)
[3]
  triketide lactone formation at 20 µM substrate (FIG. 28 D): no product was detected at the same substrate concentrations
[4]
  kcat/KM, fold decrease against the matched reaction (FIG. 28 C): fell approximately 20-fold and 150-fold, respectively
  triketide lactone formation at 20 µM substrate (FIG. 28 C): transfer of diketide from the donor ACP to the acceptor module occurred at 20 µM substrate concentration
[1]
  conversion of acyl-ACP into triketide lactone in 1 h (20 µM 4, 1 µM (5)M5+TE): 70% of the acyl-ACP was converted into triketide lactone in 1 h
  elongation rate constant (kcat) with 4b, fold increase against the NAC thioester 2b: the elongation rate constant (kcat) increases at least 25-fold
  k60 µM (printed there as kcat/KM): kcat/KM values of 1.4 min-1 and 9.3 min^-1
  kcat/KM: kcat/KM values of 390 min^-1 mM^-1 and 290 min^-1mM^-1
  triketide lactone formation at 20 µM substrate (FIG. 28 A): transfer of diketide from the donor ACP to the acceptor module occurred at 20 µM substrate concentration
[2]
  kcat/KM (FIG. 29 A): 68.3 M⁻¹ s⁻¹
